Measurements: US20250163146A1, “SINGLE-DOMAIN ANTIBODIES (NANOBODIES) TARGETING THE NOTCH LIGAND DLL4 AND METHODS OF THEIR USE” (H. LEE MOFFITT CANCER CENTER AND RESEARCH INSTITUTE, INC., priority 2022, published 2025)

How the values were obtained:
mouse DLL4 = biological target: T1, mouse DLL4 (Mus musculus, UniProt Q9JI71); assay: Yeast-displayed nanobody clones stained with biotinylated mDLL4 and SA-647, flow cytometry; assay type: binding; conditions: yeast display, biotinylated mDLL4 (N-EGF3), SA-647, FIG. 1
T1 construct: The mDLL4 protein was a truncation that contained the C2, DSL, and EGF1-3 domains (DLL4 (N-EGF3)); biotin (protein is biotinylated)
Method: 162. To isolate binding molecules that interrupted the interaction of DLL4 and Notch1, we performed several rounds of selection using decreasing concentrations of biotinylated murine DLL4 protein. The mDLL4 protein was a truncation that contained the C2, DSL, and EGF1-3 domains (DLL4 (N-EGF3)). To perform a selection, the library was stained with biotinylated mDLL4, washed, incubated with streptavidin-647, washed, and then binders isolated selected using either (a) magnetic beads coated with an anti-647 antibody or (b) FACS. The mDLL4-binding yeast were then plated so that individual colonies could be picked and cultured to isolate individual clones. The clones were then each stained with mDLL4 and SA-647 and analyzed by flow cytometry to confirm that they bound to mDLL4. (FIG. 1).

hDLL4: hNotch1 complexes = hDLL4: hNotch1 complexes (Homo sapiens, UniProt Q9NR61); assay: Yeast expressing nanobody stained with unlabeled hDLL4 + biotinylated hNotch1 (6-13), flow cytometry (inhibition of hNotch1 binding to hDLL4); conditions: FIG. 3
Method: (§1) 164. Next, we tested four cross-reactive nanobodies (A7, C4, C5, and B1) for their ability to inhibit binding of hNotch1 to hDLL4 (FIG. 3). Yeast expressing each nanobody were stained with either biotinylated hDLL4 (N-3) or unlabled hDLL4+biotinylated hNotch1 EGF domains 6-13 (hNotch1 (6-13)). The yeast were then washed, incubated with SA-647, and analyzed by flow cytometry.

[1] = system: DLL4-mediated Notch activation (hNotch1); assay: Plate-bound ligand stimulation assay, Notch1 H2B-citrine reporter cells on recombinant human DLL4; assay type: cell-based; conditions: nanobody-Fc fusions, plates coated with human DLL4 (C2, DSL, EGF1-5), FIG. 6
Excerpt: 167. To determine if the C4 and C5 nanobodies inhibit DLL4-mediated Notch activation. Notch1 reporter H2B-citrine reporter cells were transferred to 96-well plates coated with recombinant human DLL4 protein containing the C2, DSL, and EGF1-5 domains in the presence or absence of nanobody-Fc fusions.

DLL4 [2] = biological target: T2, DLL4 (Homo sapiens, UniProt Q9NR61); assay: SPR monomer affinity; assay type: binding; conditions: preliminary, FIG. 8
Excerpt: (§2) 168. We the investigated the C4 nanobody following affinity maturation and found a second nanobody Nb.d4C4v2. To identify the similarity between the parent C4 and the variant C4v2 clone the sequences of each nanobody was compared (FIG. 7). We also investigated the affinity of the C4 nanobody. […] Moreover, inhibition in plate-bound and co-culture formats in the presence of CHO-hNotch1 reporter cell line and with or without cells expressing DLL4 indicate a low-nanomolar IC50 similar to DAPT, indicating affinity-matured Nb.d4C4v2 is a clinical candidate (FIGS. 9 and 10).
Target sequence in this assay (Q9NR61 27-685, species assumed): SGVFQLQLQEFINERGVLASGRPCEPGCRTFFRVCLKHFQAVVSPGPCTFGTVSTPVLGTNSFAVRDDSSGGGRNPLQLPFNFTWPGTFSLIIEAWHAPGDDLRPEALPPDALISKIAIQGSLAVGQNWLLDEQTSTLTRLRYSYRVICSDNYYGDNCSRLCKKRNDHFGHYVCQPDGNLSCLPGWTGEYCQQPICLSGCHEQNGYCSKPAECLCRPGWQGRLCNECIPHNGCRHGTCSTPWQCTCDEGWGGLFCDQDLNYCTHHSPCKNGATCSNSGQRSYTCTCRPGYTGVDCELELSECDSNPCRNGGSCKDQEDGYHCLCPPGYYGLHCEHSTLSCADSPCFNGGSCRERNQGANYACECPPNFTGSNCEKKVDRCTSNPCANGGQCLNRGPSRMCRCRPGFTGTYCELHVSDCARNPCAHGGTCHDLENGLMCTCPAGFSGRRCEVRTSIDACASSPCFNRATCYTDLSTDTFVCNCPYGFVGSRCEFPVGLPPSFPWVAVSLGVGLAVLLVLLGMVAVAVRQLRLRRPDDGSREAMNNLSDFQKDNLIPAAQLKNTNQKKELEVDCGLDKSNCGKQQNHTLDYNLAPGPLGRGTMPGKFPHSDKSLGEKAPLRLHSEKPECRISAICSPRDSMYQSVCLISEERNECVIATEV

DLL4 [3] = biological target: T2, DLL4; assay: Yeast expressing nanobody stained with biotinylated hDLL4 (N-3) alone, flow cytometry; assay type: binding; parameters: stained with biotinylated human DLL4 (N-EGF3); conditions: yeast display, FIG. 3
Method: as §1
Target sequence in this assay (Q9NR61 27-322 limits assumed): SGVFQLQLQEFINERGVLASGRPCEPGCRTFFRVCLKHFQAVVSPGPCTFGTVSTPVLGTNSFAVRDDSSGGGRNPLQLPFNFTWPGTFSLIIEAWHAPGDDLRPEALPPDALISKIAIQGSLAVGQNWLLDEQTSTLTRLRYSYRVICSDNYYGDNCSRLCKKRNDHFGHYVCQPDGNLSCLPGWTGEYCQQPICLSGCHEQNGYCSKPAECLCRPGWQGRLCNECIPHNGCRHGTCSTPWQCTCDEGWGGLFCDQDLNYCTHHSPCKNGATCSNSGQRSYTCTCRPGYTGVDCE

DLL4 [4] = biological target: T2, DLL4; assay: Cross-reactivity: yeast expressing each nanobody stained with biotinylated human DLL4 (N-EGF3), flow cytometry; assay type: binding; parameters: stained with biotinylated human DLL4 (N-EGF3); biotin (protein is biotinylated); conditions: yeast display, SA-647, FIG. 2
Method: 163. The eight anti-DLL4 nanobody clones were then tested for cross-reactivity between human and mouse DLL4. Yeast cells expressing each nanobody were stained with biotinylated human DLL4 (N-EGF3), washed, stained with SA-647, and then analyzed by flow cytometry.
Target sequence in this assay (Q9NR61 27-322 limits assumed): as above

hNotch1 = assay: Inhibition in plate-bound and co-culture formats with CHO-hNotch1 reporter cell line; assay type: cell-based, human; conditions: preliminary
Excerpt: as §2

T1 sequence (Q9JI71 27-323 limits assumed): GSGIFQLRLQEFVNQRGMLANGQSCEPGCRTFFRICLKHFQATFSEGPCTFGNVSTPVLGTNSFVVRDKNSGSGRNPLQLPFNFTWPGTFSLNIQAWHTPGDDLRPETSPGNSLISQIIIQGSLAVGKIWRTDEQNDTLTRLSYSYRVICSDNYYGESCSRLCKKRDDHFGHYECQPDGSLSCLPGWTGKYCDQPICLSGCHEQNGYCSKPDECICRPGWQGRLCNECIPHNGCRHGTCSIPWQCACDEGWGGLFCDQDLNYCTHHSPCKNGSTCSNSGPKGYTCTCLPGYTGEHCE
hDLL4: hNotch1 complexes, sequence (Q9NR61 27-322 limits assumed, one chain of several): as the sequence (Q9NR61 27-322 limits assumed) above

Molecule | binding to mouse DLL4 (mouse DLL4) | cross-reactivity with human DLL4 (DLL4 [4]) | other results
clone A9: anti-DLL4 nanobody isolated from the yeast library, SEQ ID NO: 8 (protein) VHH: QVQLQESGGGLVQAGGSLRLSCAASGTISQDSGMGWYRQAPGKEREFVAGITAGSITYYADSVKGRFTISRDNAKNTVYLQMNSLKPEDTAVYYCAASYVSVQAHTYWGQGTQVTVSSGSYPYDVPDYAQTSSPSTEAS | bound mouse DLL4 | – | –
clone C4: anti-DLL4 nanobody isolated from the yeast library, SEQ ID NO: 32; nanobody d4C4 SEQ ID NO: 36 (protein) VHH: QVQLQESGGGLVQAGGSLRLSCAASGSISGDVEMGWYRQAPGKEREFVAGINDGGNTYYADSVKGRFTISRDNAKNTVYLQMNSLKPEDTAVYYCAVSTTYPSYNESQYADWLAYWGQGTQVTVSSGSYPYDVPDYAQTSSPSTEAS | – | cross reacted with human DLL4 | binding to hDLL4: hNotch1 complexes (hDLL4: hNotch1 complexes): not to hDLL4: hNotch1 complexes; reduction in reporter activity (hNotch1 activation) [1]: dose-dependent reduction in reporter activity; monomer affinity (DLL4 [2]): low nanomolar to picomolar range; binding to hDLL4 alone (DLL4 [3]): bound robustly
clone C2: anti-DLL4 nanobody isolated from the yeast library, SEQ ID NO: 28 (protein) VHH: QVQLQESGGGLVQAGGSLRLSCAASGSISVVYGMGWYRQAPGKEREFVAGISYGGSTYYADSVKGRFTISRDNAKNTVYLQMNSLKPEDTAVYYCAVDASYWDTLVYWGQGTQVTVSSGSYPYDVPDYAQTSSPSTEAS | bound mouse DLL4 | – | –
clone B1: anti-DLL4 nanobody isolated from the yeast library, SEQ ID NO: 12 (protein) VHH: QVQLQESGGGLVQAGGSLRLSCAASGTIFYSSDMGWYRQAPGKEREFVAGINRGSTTYYADSVKGRFTISRDNAKNTVYLQMNSLKPEDTAVYYCAVVSDVLTRLFYWGQGTQVTVSSGSYPYDVPDYAQTSSPSTEAS | bound mouse DLL4 | cross reacted with human DLL4 | –
clone B4: anti-DLL4 nanobody isolated from the yeast library, SEQ ID NO: 16 (protein) VHH: QVQLQESGGGLVQAGGSLRLSCAASGNISVWIPMGWYRQAPGKEREFVASIGEGSTTYYADSVKGRFTISRDNAKNTVYLQMNSLKPEDTAVYYCAVPYYGHSDYDYWGQGTQVTVSSGSYPYDVPDYAQTSSPSTEAS | bound mouse DLL4 | – | –
clone A8: anti-DLL4 nanobody isolated from the yeast library, SEQ ID NO: 4 (protein) VHH: QVQLQESGGGLVQAGGSLRLSCAASGTIFEERVMGWYRQAPGKEREFVAGIASGAITYYADSVKGRFTISRDNAKNTVYLQMNSLKPEDTAVYYCAAQGYSFKTKPDYSAYVLVYWGQGTQVTVSSGSYPYDVPDYAQTSSPSTEAS | bound mouse DLL4 | – | –
clone A7: anti-DLL4 nanobody isolated from the yeast library, SEQ ID NO: 24 (protein) VHH: QVQLQESGGGLVQAGGSLRLSCAASGNIFYTYSMGWYRQAPGKEREFVAAISAGTITYYADSVKGRFTISRDNAKNTVYLQMNSLKPEDTAVYYCAVFAPRDVIHYYWGQGTQVTVSSGSYPYDVPDYAQTSSPSTEAS | bound mouse DLL4 | cross reacted with human DLL4 | –
Nb.d4C4v2: affinity-matured variant of the C4 nanobody, SEQ ID NO: 39 (SEQ ID NO: 41 with flanking sequence) (protein) VHH: QVQLQESGGGLVQAGGSLRLSCAASGSISGDVEMGWYRQAPGKEREFVAGINDGGNIYYADNVEGRFTISRDNAKNTVYLQMNSLKPEDTAVYYCAVSTTYPSYNESQYADWIAYWGQGAQVTVSS | – | – | IC50 (hNotch1; CHO-hNotch1 reporter cell line and cells expressing DLL4, similar to DAPT, FIG. 10): low-nanomolar; IC50 (hNotch1; CHO-hNotch1 reporter cell line, without cells expressing DLL4, similar to DAPT, FIG. 9): low-nanomolar
clone C5: anti-DLL4 nanobody isolated from the yeast library, SEQ ID NO: 20 (protein) VHH: QVQLQESGGGLVQAGGSLRLSCAASGNISTGTAMGWYRQAPGKEREFVAGIAYGATTYYADSVKGRFTISRDNAKNTVYLQMNSLKPEDTAVYYCAVEVSQSTPGGRYSVAYLIYWGQGTQVTVSSGSYPYDVPDYAQTSSPSTEAS | bound mouse DLL4 | cross reacted with human DLL4 | binding to hDLL4: hNotch1 complexes (hDLL4: hNotch1 complexes): not to hDLL4: hNotch1 complexes; reduction in reporter activity (hNotch1 activation) [1]: dose-dependent reduction in reporter activity; binding to hDLL4 alone (DLL4 [3]): bound robustly
